Measured values published in publication PMC9232105, “S-Adenosylmethionine–responsive cystathionine β-synthase modulates sulfur metabolism and redox balance in Mycobacterium tuberculosis” (Science Advances, 2022).
Where a chain is given by its changes, count along the chain named. Names may count otherwise.

B1: MtbCbs L454A (enzyme)
chain: MRIAQHISELIGGTPLVRLNSVVPDGAGTVAAKVEYLNPGGSSKDRIAVKMIEAAEASGQLKPGGTIVEPTSGNTGVGLALVAQRRGYKCVFVCPDKVSEDKRNVLIAYGAEVVVCPTAVPPHDPASYYSVSDRLVRDIDGAWKPDQYANPEGPASHYVTTGPEIWADTEGKVTHFVAGIGTGGTITGAGRYLKEVSGGRVRIVGADPEGSVYSGGAGRPYLVEGVGEDFWPAAYDPSVPDEIIAVSDSDSFDMTRRLAREEAMLVGGSCGMAVVAALKVAEEAGPDALIVVLLPDGGRGYMSKIFNDAWMSSYGFLRSRLDGSTEQSTVGDVLRRKSGALPALVHTHPSETVRDAIGILREYGVSQMPVVGAEPPVMAGEVAGSVSERELLSAVFEGRAKLADAVSAHMSPPLRMIGAGELVSAAGKALRDWDALMVVEEGKPVGVITRYDLAGFLSEGAGRR
B2: MtbCbs E388A (enzyme)
chain: B1 chain with E388A, A454L
B3: MtbCbs I357A (enzyme)
chain: B1 chain with I357A, A454L
notes: also called I357A mutant
B4: MtbCbs S393R (enzyme)
chain: B1 chain with S393R, A454L
B5: MtbCbs R450A (enzyme)
chain: B1 chain with R450A, A454L
B6: MtbCbs mutant lacking the Bateman module (MtbCbs 1-317) (domain or fragment)
chain: MRIAQHISELIGGTPLVRLNSVVPDGAGTVAAKVEYLNPGGSSKDRIAVKMIEAAEASGQLKPGGTIVEPTSGNTGVGLALVAQRRGYKCVFVCPDKVSEDKRNVLIAYGAEVVVCPTAVPPHDPASYYSVSDRLVRDIDGAWKPDQYANPEGPASHYVTTGPEIWADTEGKVTHFVAGIGTGGTITGAGRYLKEVSGGRVRIVGADPEGSVYSGGAGRPYLVEGVGEDFWPAAYDPSVPDEIIAVSDSDSFDMTRRLAREEAMLVGGSCGMAVVAALKVAEEAGPDALIVVLLPDGGRGYMSKIFNDAWMSSYGFL
B7: MtbCbs W433F (enzyme)
chain: B1 chain with W433F, A454L
B8: MtbCbs E390A (enzyme)
chain: B1 chain with E390A, A454L
B9: MtbCbs S411A (enzyme)
chain: B1 chain with S411A, A454L
B10: MtbCbs D432N (enzyme)
chain: B1 chain with D432N, A454L

Biological target: the molecule itself
Assay: SEC

Protein	binding result	stoichiometry N
B1	binds	–
B2	binds	–
B3	binds	–
B4	binds	–
B5	binds	–
B6	–	2

Biological target: the molecule itself
Assay: not given

Protein	stoichiometry N
B7	4
B8	4
B9	4
B10	4
